Biological target: T1, MS2 bacteriophage coat protein (bacteriophage MS2), P03612
T1 chain: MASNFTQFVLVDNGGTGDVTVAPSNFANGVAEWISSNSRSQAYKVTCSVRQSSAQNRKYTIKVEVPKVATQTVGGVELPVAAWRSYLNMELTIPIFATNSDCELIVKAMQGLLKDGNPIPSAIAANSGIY
Assay: SDS-PAGE with Western blot; 12.5% acrylamide gel, polyclonal anti-MS2 coat protein antibody; BL21(DE3) bacterial lysate; bands of 14 and 28 kDa
Details: remark: other sources report otherwise

B1: MS2 bacteriophage coat protein, P03612 1-130 (natural protein)
chain: MASNFTQFVLVDNGGTGDVTVAPSNFANGVAEWISSNSRSQAYKVTCSVRQSSAQNRKYTIKVEVPKVATQTVGGVELPVAAWRSYLNMELTIPIFATNSDCELIVKAMQGLLKDGNPIPSAIAANSGIY
For B1, the stoichiometry N was 2.

From publication PMC8494748
